The nanobody polyreactivity screen of Harvey et al. (2022)

Experiment: yeast display, Sf9 membrane polyspecificity reagent, FACS + sequencing; frameworks hold sequencing errors
In short: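 A synthetic nanobody library was expressed on Saccharomyces cerevisiae BJ5465 by galactose induction for 36–48 hours. The library was stained for 1 hour at 4 °C with 10% biotinylated, detergent-solubilized Sf9 membrane reagent and enriched with streptavidin microbeads before FACS. Low and high (top ~1%) gates were set on anti-HA fluorescence for expression and streptavidin fluorescence for reagent binding, and each polyreactivity label reflects the gate of origin.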

| Sequence | polyreactivity (PSR sort gate) |
| --- | --- |
| QVQLVESGGGLFQAGGRLRLSCAASGRIFWLYAMGWYRQAPGKERELVAAITGIGGSTYYADSVKGRFTISRDNAKNTVYLQMNSLKPEDTAVYYCAARSPATYPSMGYWGQGTQGTVSS | low polyreactivity |
| QVKLVESGGGLVQAGGSLRLSCAASGLTLQWYALGWYRQAHGKERDLVAAISYNGGDTYYADSVKGRFTISRDNAKNTVYLQMNSLKPEDTAVYYCAAYWYVGVNYSQRRDYWGQGTQVTVSS | low polyreactivity |
| QVQLVESGGGLVQAGGSLRLSCAASGSTFPANAMGWYRPAPGKERELVAAISSVGSTNYADSVKGRFTISRDNAKNTVYLQMNSLKPEDTAVYYCATQPTWYTVGDLDYWGQGTQVTVSS | low polyreactivity |
| QVQLVESGGGLFQAGGSHRLSCAATGINFSEYAMGWYRQAPGKERELVAAISKSSGSTRYADSVKGRFTISRDNAKNTVFLQMNSLNPEDTAVYYCAARQYGPRYTYYYWGQGTQVTVSS | high polyreactivity |
| QVQLVESGGGLVQAGGSLRLSCAASGRTFYSYAMGWYRQAPGKEWVLVAAISKRGTSTYYADSVKGRFTISRDNAKNTVYLQMNTLKPEDTAVYYCAAAYRGREVEYTSWGQGTQVTVSS | high polyreactivity |
| QVQLVESGGRLVQAGCSLRLSCAASGFTFYQNAMGWYRQAPGKVRELVAAISVSGDSTYYADSVKGRLTISRDNAKNTVYLQMNSLKPEDTAVYYCTEYFYYLSLYYYYWFNYDYWGHGTQVTVSS | low polyreactivity |
| QVQLVESGGGLVQAGGSLRLSCAASGNNFGNNAMGWYRQAPGKERELVAAISSSGTSTYYADSVKGRFTISRDNAKNTVYLQMNSLKPEDTSVYYCNADPLPYDGYYDYDYWGQGTEVTVSS | low polyreactivity |
| QVQLVESGGGLVQAGGSLRLSCAASGFTFKYYAMGWYRQAPGKERELVADITRSGGSTYYADSVKGRFTISRDTAKITVYLQMNSLKPEDTAVYYCAVDPVRYPYSYDYWGQGTQVTVSS | high polyreactivity |
| QVQLVESGGGLVQAGGSLRLSCAASGSTFHDYAMGWYRQAPGKEREFVAAISVRGGSTYYADSVKGRFTISRDNAKNTVYLQMNSLKPEDTAVYYCNKLSSDSYNYWGQGTQVTVSS | high polyreactivity |
| QVQLVESGGGLVQAGGSLRLSCAASGFTIPVYVMGWYRQAPGKERELVAAITRTGGRTYYADSVKGRFTISRDNAKNTVYLQMNSLKPEDTAVYYCAAFTHRYGISEFDYWGQGTQVTVSS | high polyreactivity |
| QVQLVESGGGLVQAGGSLRLSCAASGSIFTGNAMGWYRQAPGKERELVAAITQRGGRTYYADSVKGRFTISRDNAKNTVYLQMNSLKPKIPAVYYCNAKWTTLFDYWGQGTQVTVSS | high polyreactivity |
| QVQLVESGGGLVQAGGSLRLSCAASGLTFWLYAMGWYRPAPGKERELVAAITRSGGSTSYADSVKGRFTISRDNAKNTVYLQMNSLKPEDTAVYYCNADSPGYTAVRLVEFDYWGQGTQVTVSS | low polyreactivity |
| QVQLVESGGGLVQAGGSRRLSCAASGSTFYPYAMGWYRQAPGKERELVAAITWSGGRTYYADSVKGRFTISRDNAKNTVYLQMNSLKPEDTAVYYCAADRPDRWVDYWGQGTQVTVSS | low polyreactivity |
| QVQLVESGGGLVQAGGSLRLSCASSGRTFWYYAMGWYRQPPGKERELVAAITSGGSTNYADSVKGRFTISRDNAKNTVYLQMNSLKPEDTAVYYCATDNPVFEYDYWGQGTQVTVSS | low polyreactivity |
| QVQLGESGGGLVQAGGSLRLTCAASGLIFYRNARGWYRQAPGKERELVAAISKNGGNTYYADSVKGRFTISRDYAKNTVYLQMNSLKPEDTAVYYCAARELYGPFGYWGQGTQVTVSS | high polyreactivity |
| QVQLVESGGGLVQAGGSLRLSCAASGRILYLNAMGWYRQAPGKERELVAAITRRAGSTRYADSVKGRFTISRDKAKNTVYLQMNSLKPEDTAVYYCAVAYYRNRMDYWGQGTQVTVSS | high polyreactivity |
| QVQLVESGGGLVQAGGSLRLSCAASGITFGRYAMGWYRQAPGKERELVAAISWSGGSTYYADSVKGRFTISRDNANNTVYLQMNRLKPEDTAVYYCNVVFRFNSFDYYYWGQGSQVTVSS | high polyreactivity |
| QVQLVESGGGLVQAGGSLRLSCAASGIIFVKYTMGWYRQAPGKERELVAAITRGGSTYYADSVKGRFTISRDNAKNTVYLQMNSLKPEDTAVYYCAAAWYQYFVPGYRGYTYYYWGQGTQVTVSS | high polyreactivity |
| QVQLVESGGGLVQAGGSLRLSCAASGSTYDNNRMGWYRQATGKERELVASITFNVGSTYYADSVKGRFTISRDNAKNTVYLQMNSLKPEETAVYYCAADDLNLSQALGYDYWGQGTQVTVSS | low polyreactivity |
| QVQLVESGGGLVQAGGSLRLSCAASGRIFAWYAMGWYRQAPGKEREFVAAISRGGSTYYADSVKGRFTISRDNAKNTVYLQMNSLKPEDTAVYYCAASSPSSGRFDYWGQGTQVTVSS | high polyreactivity |
| QVQLVESGGGLVQAGGSLRVSCAASGLTFKINAMGWYRQEPGKERELVAAITWNGGRTYYADSVKGRFTISRDNAKNTVYLQMNSLKPEDTAVYYCAADGKYYHRRPGWPIYDYWGQGTQVTVSS | high polyreactivity |
| QVQLGESGGGLVQAGGSLRLSCAASGIIFRYYAMGWYRQAPGKERELVAAISSSGVSTYYADSVKGRFTISRDNAQNTVYLQMNSLKPEDTAVYYCAAVTTWRMDYWGQGTQVTVSS | high polyreactivity |

| Sequence | polyreactivity (PSR sort gate) |
| --- | --- |
| QVQLVESGGGLVQAGGSLRLSCAASGSTFYPNAMGWYRQAPGKERELVADISYSGGRTYYADSVKGRFTISRDNAKNTVYLQMNSLKPEYTAVYYCAARKVTYHYQWMDYWGQGTQVTVSS | low polyreactivity |
| QVQLVESGGGLVQAGGSLRLSCAASGIFRSNARGWYRQAPGKERELVAGISSGGGTNYADSVKGRFTISRDNAKNTVYLQMNSLKPEDTAVYYCAKERIYFDYWYVYTDLVYEYDYWGQGSQVTVSS | low polyreactivity |
| QVQLVESGGGLVQAGGSLRLSCAASGSIFNRNVMGWYRQAPGKERELVAAITWSGASTYYADSVKGRFTISRDNAKNTVYLQMNSLKPEDTAVYYCAATQYYRGYDYWGQGTQVTVSS | high polyreactivity |
| QVQLVESGGGLVQAGGSLRLSCAPSGSIFDFNTMGWYRQAPGKERELVAAISQRTGRTYYADSVKGRFTISRDNAKNTVYLQMNSLKPEDTAVYYCARTDRRLGAHQGDYWGQGTQVTVSS | high polyreactivity |
| QVQLVESGGGLLQAGGSLRLSCAASGSILGPYAMGWYRQAPGKERELVAGIDATDGSTYYADSVKGRFTISRDNAKNTVYLQMNSLKPEDTAVYYCAAAPYAYYGEYNYWGQGTQVTVSS | low polyreactivity |
| QVQLVESGGGLVQAGGSLRLSCAASGSTFTGNAMGWYRQAPGKERELVAAITDRGGSTYADSVKGRFTISRDNAKNTVYLQMNSLKPEDTAVYYCATRRDLHDRYEYDYWGQGTQVTVSS | low polyreactivity |
| QFQLVESGGGLVQAGGSLRLSCAASGSIFYRYAMGSDRQAPGKERELVAAISTGGGSTKYADSVKGRFTISRHNAKNTVYLQMNSLKPEDTAVYYCAASRAVTQYSGGGYGGQGTQVTVSS | high polyreactivity |
| QVQLVESGGGLVQAGGSLRLSCAASGSIIRRYAMGWYRQAPGKERELVAAISSGGSTYYADSVKGRFTISRDNAKNTVYLEMNSLKPVDTAVYYCAAAQRVSWLFGYWGQGTQVTVSS | high polyreactivity |
| QVQLVESGGGLVQAGGSLRLSCAASGSIFGSYAMGWYRQAPGKERELVAAISWRGGRTYYADSVKGRFTISRDNAKNTVYLQMNSLKPEDTAVYYCAAERHARSSYEYWGQGTQVTVSS | low polyreactivity |
| QVQLVESGGGLVQAGGSLRLSCAASGITFVVYAMGCYRPAPGKERELVASITYSGGSTYYADSVQGRFTISRDNAKNTVYLQMTSLKPEDTAVYYCNADGYTIYYLPYSDYDAYDYWGQGTQVTVSS | low polyreactivity |
| QVQLVESGGGLVQAGGSLRLSCAASGSTFGYYTMGWYRQAPGKERELVAAISWSGGRTYYADSVKGRFTISRDNAKNTVYLQMNSLKPEDTAVYYCAAPRYGGWRSYQKYDYWGQGTQVTVSS | high polyreactivity |
| QVQLVESGGGLVQAGGSLRLSCAASGSTFYGYAMGWYRQAPGKERELVAAISGGGSTNYADSVKGRFTISRDNAKNTVYLQMNSLKPEDTAVYYCAARTTVYRRYGRNYWGQGTQVTVSS | high polyreactivity |
| QVHLVESGGCLVQAGGSLRLSSAASASIFYYNTMGWYIQAPGKERELVATNSSDGGTNYADSVKGRFTISRDNAKNTVYLQMNSLKPEDTAVYYCAAAVSPYSYWPGFDYWGQGTQVTVSS | low polyreactivity |
| QVQLVESGGGLVQAGGSLRLSCAASGSISEIYAMGWYRQAPGKERELVAAISWSGGRTYYADSVKGRFTISRDNAKNTVYLQMNSLKPEDTAVYYCAARYRGGYYFGYEPYYYWGQGTQVTVSS | high polyreactivity |
| QVQLVESGGGLGQAGGSLLLSCAASGRIFWCNAMGWTRQAPGKERELVAAIRWSGGSTYYADSVKGRFTISRDNAKNTVYLQMNSLKPEDTAVYYCAASPYWSDWTKVDSWGQGTQVTVSS | low polyreactivity |
| QVQLVESGGGLVQAGGSLRLSCAASGSTFRSYAMGWYRQAPGKERELVAAISYSGDSTYYADSVKGRFTISRDNAKNTVYLQMNSLKPEDTAVYYCAALRDWDIQGEPWKRYGYWGQGTQVTVSS | low polyreactivity |
| QVQLVESGGRLVQSGGSLRLICAASGQIFQWYAMGWYRQAPGKETELVAAISSGDSTYYADSVTGRFTISRDNAKNTVYLDMNSLKPEDTAVDYCNARAIGWRIYDYWGQGTEVTVSS | high polyreactivity |
| QVQLVESGGGLVQAGGSLRLSCAASGRIFAAYAMGWYRQAPGKERELVAGISRGGRTYYADSVKGRFTISRDNAKNTVYLQMNSLKPEDTAVYYCAKRATGQYSITTYGYDYWGQGTQVTVSS | low polyreactivity |
| QVQLVESGGGLVQAGGTLRLSCAASGNTFRYYAMGWYRQSPGKERELVARITGRAGSTYYADSVKGRFTISRDNAKKTVYLQMNSLKPEDTAVYYCAAEFYYGFDYWGQGTQVTVSS | high polyreactivity |
| QVQLVESGGGLVQAGGSLRLSCAASGRIFGYYAMGWYRQAPGKERELVAAITINGGRTYYADSVKGRFTISRDNAKNTVYLQMNSLKPEDTAVYYCTATSRYNRLGYWGQGTLVTVSS | high polyreactivity |
| QFQLVESGGGLVQAGGSLRLSCAASGIMFGYYAMGWYRQAPGKERELVAALTRSGGSTYYADSVKGRFTISRDNAKNTVYLQLNSLKPEDTALYYCNGDDDGRVSSTIVEYWGQGTQVTVSS | low polyreactivity |
